Laboratory results taken from patent publication US20190076505A1 (TORAY INDUSTRIES, published 2019).

Molecular target: HLA-DRB1*04 molecules (human)
Assay: cell-based or functional assay

| Binder | IFN-γ production (ELISA) by CD4-positive T cells against peptide-pulsed PBMCs expressing HLA-DRB1*04 |
| --- | --- |
| HVGWLLVRKHPAVKE [polypeptide consisting of the amino acid sequence represented by SEQ ID NO: 42] | ≥ 1000 pg/mL |
| VEYVWRNIILMSLLHLGALYGITL [polypeptide consisting of the amino acid sequence represented by SEQ ID NO: 37] | ≥ 1000 pg/mL |
| HRSYKARLPLRLFLI [polypeptide consisting of the amino acid sequence represented by SEQ ID NO: 40] | ≥ 1000 pg/mL |
| TAGAHRLWSHRSYKARLPLR [polypeptide consisting of the amino acid sequence represented by SEQ ID NO: 39] | ≥ 1000 pg/mL |
| WGVFYYFVSALGITAGAH [polypeptide consisting of the amino acid sequence represented by SEQ ID NO: 38] | ≥ 1000 pg/mL |
| PLRLFLIIANTMAFQN [polypeptide consisting of the amino acid sequence represented by SEQ ID NO: 41] | ≥ 1000 pg/mL |

Other lines, results leading:

| IFN-γ production (ELISA) by CD4-positive T cells against peptide-pulsed PBMCs expressing HLA-DRB1*04 | Binder |
| --- | --- |
| ≥ 1000 pg/mL | AEKLVMFQRRYYKPGLL [polypeptide consisting of the amino acid sequence represented by SEQ ID NO: 43] |
| ≥ 1000 pg/mL | ASEYRWHINFTT [polypeptide consisting of the amino acid sequence represented by SEQ ID NO: 45] |
| ≥ 1000 pg/mL | NATWLVNSAAHLFGYR [polypeptide consisting of the amino acid sequence represented by SEQ ID NO: 44] |
